Test results from the Human Domainome abundance scans (Beltran et al. 2025).
± gives the uncertainty stated by the source.

B1: Peroxisome proliferator-activated receptor delta, residues 71 to 145; numbered along this chain, Q03181 (parent)
chain: NMECRVCGDKASGFHYGVHACEGCKGFFRRTIRMKLEYEKCERSCKIQKKNRNKCQYCRFQKCLALGMSHNAIRF
B2: POU domain, class 2, transcription factor 2, residues 200 to 269; numbered along this chain, P09086 (parent)
chain: LEELEQFARTFKQRRIKLGFTQGDVGLAMGKLYGNDFSQTTISRFEALNLSFKNMCKLKPLLEKWLNDAE

Variants of: B1
Test: abundance fitness (aPCA) (normalised: wild type 0, dead -1); higher = more abundant; growth selection in yeast, the domain comes from the species named
Conditions: Homo sapiens

Row | Variant | abundance fitness
1 | M2L | -0.315 ± 0.059
2 | M2E | -0.227 ± 0.063
3 | M2T | -0.156 ± 0.052
4 | M2P | -0.58 ± 0.11
5 | N1V | -0.141 ± 0.057
6 | N1G | -0.212 ± 0.049
7 | N1H | -0.155 ± 0.11
8 | N1D | -0.049 ± 0.066
9 | N1W | -0.593 ± 0.12
10 | N1A | -0.179 ± 0.067
11 | N1E | -0.07 ± 0.065
12 | N1Q | -0.218 ± 0.12
13 | N1I | 0.16 ± 0.078
14 | N1L | -0.455 ± 0.084
15 | N1Y | -0.266 ± 0.15
16 | N1R | -0.296 ± 0.064
17 | N1T | -0.012 ± 0.067
18 | N1K | -0.075 ± 0.073
19 | N1P | -0.475 ± 0.21
20 | N1C | -0.421 ± 0.11
21 | H15I | -0.154 ± 0.076
22 | H15S | -0.117 ± 0.041

Row | Variant | abundance fitness
23 | H15D | -0.027 ± 0.05
24 | H15A | -0.116 ± 0.042
25 | H15G | -0.285 ± 0.039
26 | H15C | -0.044 ± 0.066
27 | H15P | -0.242 ± 0.055
28 | H15K | -0.61 ± 0.11
29 | H15F | -0.006 ± 0.069
30 | H15Q | -0.188 ± 0.066
31 | H15E | -0.025 ± 0.045
32 | H15N | -0.341 ± 0.12
33 | H15M | -0.125 ± 0.05
34 | H15R | -0.595 ± 0.057
35 | A11C | -0.367 ± 0.075
36 | A11Y | -0.31 ± 0.083
37 | A11L | -0.338 ± 0.048
38 | A11W | -0.706 ± 0.092
39 | A11I | -0.154 ± 0.083
40 | A11S | -0.091 ± 0.045
41 | A11P | -0.197 ± 0.065
42 | A11V | -0.306 ± 0.05
43 | A11K | -0.482 ± 0.091
44 | A11D | -0.237 ± 0.077

Row | Variant | abundance fitness
45 | A11H | -0.218 ± 0.1
46 | A11F | -0.228 ± 0.085
47 | A11Q | -0.546 ± 0.096
48 | A11M | -0.337 ± 0.069
49 | A11T | -0.147 ± 0.052
50 | A11G | -0.232 ± 0.036
51 | A11R | -0.485 ± 0.049
52 | K10A | -0.002 ± 0.041
53 | K10F | -0.283 ± 0.11
54 | K10L | -0.018 ± 0.039
55 | K10W | -0.206 ± 0.053
56 | K10H | -0.027 ± 0.094
57 | K10N | -0.075 ± 0.08
58 | K10D | -0.01 ± 0.059
59 | K10S | -0.106 ± 0.038
60 | K10Q | 0.08 ± 0.045
61 | K10E | 0.007 ± 0.039
62 | K10P | -0.268 ± 0.057
63 | K10M | -0.107 ± 0.059
64 | K10G | -0.191 ± 0.035
65 | K10V | 0 ± 0.038
66 | K10C | -0.336 ± 0.074

Row | Variant | abundance fitness
67 | K10I | -0.052 ± 0.071
68 | R5C | -0.13 ± 0.063
69 | R5Q | 0.113 ± 0.047
70 | R5N | 0.089 ± 0.064
71 | R5M | 0.067 ± 0.048
72 | R5S | 0.034 ± 0.038
73 | R5L | 0.003 ± 0.037
74 | R5H | -0.257 ± 0.1
75 | R5P | -0.376 ± 0.055
76 | R5Y | -0.085 ± 0.088
77 | R5G | -0.045 ± 0.031
78 | R5K | 0.139 ± 0.05
79 | R5V | 0.091 ± 0.035
80 | R5F | -0.326 ± 0.091
81 | R5E | 0.105 ± 0.045
82 | R5T | -0.018 ± 0.043
83 | R5I | -0.176 ± 0.067
84 | R5A | 0.175 ± 0.034
85 | R5W | -0.118 ± 0.047
86 | R5D | 0.032 ± 0.05

Variants of: B2
Test: as above
Conditions: Homo sapiens

Row | Variant | abundance fitness
87 | Q13Y | -0.169 ± 0.11
88 | G19R | -0.128 ± 0.029
89 | L4C | -0.784 ± 0.11
90 | L4T | -0.11 ± 0.048
91 | T40L | -0.078 ± 0.06
92 | F11D | -0.565 ± 0.096
93 | T10P | -1 ± 0.025
94 | N54W | -0.081 ± 0.056
95 | N54T | 0.023 ± 0.09
96 | A8K | -0.856 ± 0.18
97 | D36Y | 0.013 ± 0.09
98 | D36E | -0.026 ± 0.059
99 | F20H | -0.035 ± 0.092
100 | F20N | -0.427 ± 0.17
101 | F20P | -1.01 ± 0.17
102 | E2T | -0.274 ± 0.094
103 | E2C | -0.699 ± 0.28
104 | N49A | -0.026 ± 0.036
105 | L32A | -0.006 ± 0.05
106 | M55R | -0.502 ± 0.028
107 | A69F | -0.179 ± 0.085

Row | Variant | abundance fitness
108 | L18T | -0.227 ± 0.052
109 | R14E | -0.138 ± 0.062
110 | R14W | -0.271 ± 0.051
111 | V25R | -0.696 ± 0.06
112 | F45T | -0.989 ± 0.15
113 | E3K | -0.189 ± 0.083
114 | L27G | -0.049 ± 0.031
115 | G26V | -0.022 ± 0.038
116 | M29V | 0.003 ± 0.053
117 | M29N | -0.616 ± 0.14
118 | M29A | -0.131 ± 0.054
119 | M29H | -0.681 ± 0.18
120 | D68P | -0.349 ± 0.03
121 | G23I | -0.004 ± 0.22
122 | L58Q | -0.194 ± 0.08
123 | Q22T | -0.045 ± 0.049
124 | Q22S | -0.093 ± 0.047
125 | S38M | -0.085 ± 0.051
126 | S38G | 0.025 ± 0.034
127 | K17N | 0.02 ± 0.081
128 | L61I | -0.141 ± 0.1

Row | Variant | abundance fitness
129 | A28C | -0.108 ± 0.051
130 | A28G | -0.098 ± 0.036
131 | K64L | -0.049 ± 0.046
132 | K31C | -0.054 ± 0.065
133 | K31Y | -0.178 ± 0.075
134 | G34H | -0.018 ± 0.11
135 | G34E | 0.052 ± 0.064
136 | L1N | 0.008 ± 0.21
137 | K57S | -0.067 ± 0.049
138 | K57C | -0.058 ± 0.048
139 | T41C | 0.094 ± 0.097
140 | E46L | -0.904 ± 0.077
141 | E46F | -0.996 ± 0.21
142 | E46P | -0.885 ± 0.2
143 | A47R | -0.085 ± 0.036
144 | A47N | -0.019 ± 0.085
145 | A47M | -0.036 ± 0.065
146 | S43D | -0.049 ± 0.078
147 | S43F | -0.227 ± 0.079
148 | F52N | -0.069 ± 0.18
149 | F52E | -0.044 ± 0.071

Row | Variant | abundance fitness
150 | K53Y | -0.092 ± 0.14
151 | K53D | -0.048 ± 0.075
152 | N35Y | 0 ± 0.071
153 | L62P | -0.93 ± 0.27
154 | F37D | -0.4 ± 0.091
155 | E5N | -0.224 ± 0.15
156 | W65V | -0.198 ± 0.065
157 | G30D | -0.068 ± 0.028
158 | G30N | 0.019 ± 0.072
159 | D24Q | 0.003 ± 0.053
160 | D24Y | -0.095 ± 0.093
161 | F7H | -0.416 ± 0.1
162 | P60C | -0.177 ± 0.059
163 | P60Q | -0.103 ± 0.059
164 | P60E | -0.109 ± 0.048
165 | T21R | -0.14 ± 0.03
166 | Q6N | -0.141 ± 0.089
167 | Q6H | -0.236 ± 0.1
